The assay has as its target T1, TLR8 (Homo sapiens, UniProt Q9NR97).
T1 construct: expressed in transfected cells
T1 sequence (Q9NR97 27-1041): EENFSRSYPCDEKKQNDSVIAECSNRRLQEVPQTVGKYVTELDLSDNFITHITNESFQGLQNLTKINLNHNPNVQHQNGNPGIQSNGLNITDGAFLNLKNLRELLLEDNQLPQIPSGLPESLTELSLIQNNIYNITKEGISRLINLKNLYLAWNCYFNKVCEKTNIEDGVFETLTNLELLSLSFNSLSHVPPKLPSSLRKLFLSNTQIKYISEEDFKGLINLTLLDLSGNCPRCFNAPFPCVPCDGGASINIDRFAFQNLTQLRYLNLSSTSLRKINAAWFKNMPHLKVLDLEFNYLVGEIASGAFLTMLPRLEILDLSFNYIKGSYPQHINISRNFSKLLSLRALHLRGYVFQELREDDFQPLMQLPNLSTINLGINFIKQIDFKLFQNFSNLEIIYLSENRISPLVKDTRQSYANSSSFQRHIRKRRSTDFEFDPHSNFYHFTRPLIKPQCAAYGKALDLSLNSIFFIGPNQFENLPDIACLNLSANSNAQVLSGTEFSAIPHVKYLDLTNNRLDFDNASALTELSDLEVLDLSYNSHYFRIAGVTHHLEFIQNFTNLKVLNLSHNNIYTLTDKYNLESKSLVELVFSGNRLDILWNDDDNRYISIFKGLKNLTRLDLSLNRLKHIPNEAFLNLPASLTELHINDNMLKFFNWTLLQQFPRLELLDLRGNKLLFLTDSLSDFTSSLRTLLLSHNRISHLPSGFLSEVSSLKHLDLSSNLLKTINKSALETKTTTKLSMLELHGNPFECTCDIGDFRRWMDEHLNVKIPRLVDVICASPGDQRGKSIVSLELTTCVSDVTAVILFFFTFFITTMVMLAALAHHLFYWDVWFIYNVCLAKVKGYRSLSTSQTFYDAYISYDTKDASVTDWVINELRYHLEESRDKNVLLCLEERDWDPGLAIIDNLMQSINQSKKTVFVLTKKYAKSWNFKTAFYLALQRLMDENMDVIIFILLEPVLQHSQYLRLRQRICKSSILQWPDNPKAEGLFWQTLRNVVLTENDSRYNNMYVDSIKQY
Briefly: CL075-induced NFκB reporter assay in HEK293_TLR8 cells. The assay is classed as cell-based. Particulars: peptide 1, 5 or 25 μM, 2.5 μg/ml CL075, 6 h. As to the method: FIG. 12 is a bar chart showing the effect of A467 and A464 on TLR8-induced NFκB activation in HEK293 cells. HEK293_TLR8 cells were transfected with 60 ng NFκB-Luciferase and 20 ng of TK-Renilla reporter genes, as in FIG. 11. A467 (SEQ ID NO. 23) and A464 (SEQ ID NO. 20) were added to the cells at a concentration of 1, 5 or 25 μM the next day and cells were stimulated with 2.5 μg/ml CL075 1 hour after treatment with the peptide. Cells were harvested and assayed for NFκB activation by reporter gene assay 6 hr after stimulation with the agonist. No peptides were added to the control wells (black bars). Data is representative of at least three experiments each performed in triplicate. Data are expressed as mean fold induction±s.d. relative to control levels;
HEK293 cells were transfected using GeneJuice® a proprietary non-toxic transfection reagent. 200 μl/well cells at a density of 1×10^5 cells/ml were seeded the day before transfection. 0.8 μl of GeneJuice was mixed with 9.2 μl of serum-free DMEM (SFM) per transfection and incubated for 5 min at room temperature before adding the appropriate amount of the plasmid DNA. The GeneJuice/SFM/DNA mixture was then incubated at room temperature for 15 min before adding to the cells. […] Luciferase activity was analysed using a luminometer. […]
In general terms: Reporter assays use an easily measured gene product as a stand-in for the process of interest.

Experimental findings from US8722052B2, “Vaccinia virus protein A46 peptide and use thereof” (priority 2008, dated 2014) are described below.

Consider KYSFKLILAEYRRRRRRRRR [Peptide A464], for which the “inhibition of TLR8-dependent NFκB activation” value is “neither A467 (SEQ ID No. 23) nor A464 (SEQ ID No. 20) had any inhibitory effect”.
